Test results taken from US10400230B2, “Protease variants and polynucleotides encoding same” (NOVOZYMES A/S, priority 2014, dated 2019).
Positions count from the first letter of the chain named. In names and notes the source's numbering stands.

Tests used:
[1] = Determination of binding constants of inhibitor (NNIC) in Model B detergent, Suc-AAPF-pNA read-out; format: biochemical; details: Ki of variant with the mutation relative to variant without the mutation, <1.0 beneficial
Protocol: (§1) Purified protease variants are pre-diluted to approximately 0.2 mg/ml in dilution buffer. 40 μl diluted protease is then mixed with 40 μl inhibitor solution (Z-Gly-Ala-NHCH(CH2C6H4pOH)C(OH)(SO3Na)—H, wherein Z is benzyloxycarbonyl) or 40 μl 4-FPBA solution in the well of a 96 well microtiter plate (Nunc F 96-MTP). […] After 10 min mixing of protease and inhibitor at room temperature, 30 μl of the mixture is transferred to a microtiter plate (Nunc U96 PP 0.5 ml) with 270 μl Model B detergent in the wells resulting in inhibitor concentrations of 0-30 μM and 4-FPBA concentrations of 0-6000 μM. Protease, inhibitor and detergent is mixed for 1 hour using magnetic bars for 1 hour at room temperature to reach equilibrium. Then 20 μl is transferred to a microtiter plate (Nunc F 96-MTP). 100 μl substrate solution is added and after 5 sec mixing absorbance at 405 nm is measured every 20 sec for 5 min on a SpectraMax Plus reader. Slope from linear regression of initial increase in absorbance at 405 nm is used for calculation of apparent binding constants.
(§2) It is assumed that protease and inhibitor react according to the equation: E+I ? EI
(§3) Where E is the protease, I is the inhibitor and EI is the protease-inhibitor complex. […] The concentration of enzyme-inhibitor in the detergent solution is then given by:
(§4) where Etot is the total protease concentration ([Etot]=[E]+[EI]), Itot is the total inhibitor concentration ([Itot]=[I]+[EI]), and Ki is the equilibrium binding constant for the reaction. The measured slopes V are given by:
(§5) where V0 is the slope without inhibitor added. To calculate apparent binding constant Ki least square fitting of measured slopes at various inhibitor concentrations to this equation is performed with Ki and V0 as variables.
The Ki for the parent protease and for each variant was calculated as described above
(§6) Having the Ki for each variant, it is possible to calculate the effect of a single mutation, if data are available for at least two variants that differ only by that mutation. In this case, the relative Ki for the mutation is calculated:
(§7) [formula] A lower Ki is desirable, as a satisfactory inhibition can be obtained at a lower inhibitor concentration, so beneficial mutations have a relative Ki<1.0 The following table show such relative Kimutation. Each row show: • a mutation (column 1: “Mutation”) • a protease variant (relative to SEQ ID NO: 2) that comprise the mutation from column 1 (column 2: “Variant with the mutation”) • another protease variant (relative to SEQ ID NO: 2), that differs from the one in column 2 only by not having the mutation in column 1 (column 3: “Variant without the mutation”) • Relative Kimutation for the mutation in column 1, in the context of the variant in column 3, measured in Model B detergent (column 4: “inhibitor binding in Model B”) • Relative Kimutation for the mutation in column 1, in the context of the variant in column 3, measured in Tris buffer at pH 8 (column 5: “inhibitor binding in Tris buffer pH 8”)
Ki were calculated as shown in Example 3. The Improvement Factor (IF) or Relative

[2] = Determination of binding constants of inhibitor in Tris buffer at pH 8; format: biochemical; details: Ki of variant with the mutation relative to variant without the mutation
Protocol: as §1, §2, §3, §4, §5, §6, §7

B1: K146F, S173P, S175P, F180Y: TY145 protease (SEQ ID NO 3) variant with these substitutions (protein, listed as Bacillus sp.)
chain: AVPSTQTPWGIKSIYNDQSITKTTGGSGIKVAVLDTGVYTSHLDLAGSAEQCKDFTQSNPLVDGSCTDRQGHGTHVAGTVLAHGGSNGQGVYGVAPQAKLWAYKVLGDNGSGYSDDIAAAIRHVADEASRTGSKVVINMSLGSSAFDSLIASAVDYAYGKGVLIVAAAGNSGPGPNTIGYPGGLVNAVAVAALENVQQNGTYRVADFSSRGNPATAGDYIIQERDIEVSAPGASVESTWYTGGYNTISGTSMATPHVAGLAAKIWSANTSLSHSQLRTELQNRAKVYDIKGGIGAGTGDDYASGFGYPRVK
In the case of B1, the “Inhibitor-binding relative Kimutation, inhibitor binding in Model B” value [1] is reported as 0.25 and the “Inhibitor-binding relative Kimutation, inhibitor binding in Tris buffer pH 8” value [2] is reported as 0.19.

B2: K146A, S173P, S175P, F180Y: TY145 protease (SEQ ID NO 3) variant with these substitutions (protein, listed as Bacillus sp.)
chain: B1 chain with F146A
In the case of B2, the “Inhibitor-binding relative Kimutation, inhibitor binding in Model B” value [1] is reported as 0.34 and the “Inhibitor-binding relative Kimutation, inhibitor binding in Tris buffer pH 8” value [2] is reported as 0.29.

B3: I150N, S173P, S175P, F180Y: TY145 protease (SEQ ID NO 3) variant with these substitutions (protein, listed as Bacillus sp.)
chain: B1 chain with F146K, I150N
With B3 the “Inhibitor-binding relative Kimutation, inhibitor binding in Model B” value [1] was 0.35 and the “Inhibitor-binding relative Kimutation, inhibitor binding in Tris buffer pH 8” value [2] was 0.21.

B4: I150A, S173P, S175P, F180Y: TY145 protease (SEQ ID NO 3) variant with these substitutions (protein, listed as Bacillus sp.)
chain: B1 chain with F146K, I150A
With B4 the “Inhibitor-binding relative Kimutation, inhibitor binding in Model B” value [1] was 0.50 and the “Inhibitor-binding relative Kimutation, inhibitor binding in Tris buffer pH 8” value [2] was 0.40.

B5: S114Q, S173P, S175P, F180Y: TY145 protease (SEQ ID NO 3) variant with these substitutions (protein, listed as Bacillus sp.)
chain: B1 chain with S114Q, F146K
In the case of B5, the “Inhibitor-binding relative Kimutation, inhibitor binding in Model B” value [1] is reported as 0.63 and the “Inhibitor-binding relative Kimutation, inhibitor binding in Tris buffer pH 8” value [2] is reported as 0.34.

B6: K146T, S173P, S175P, F180Y: TY145 protease (SEQ ID NO 3) variant with these substitutions (protein, listed as Bacillus sp.)
chain: B1 chain with F146T
For B6, the “Inhibitor-binding relative Kimutation, inhibitor binding in Model B” value [1] was 0.08 and the “Inhibitor-binding relative Kimutation, inhibitor binding in Tris buffer pH 8” value [2] was 0.06.
